Reference: article PMC2699145 (The Journal of Cell Biology, 2009)

B1: GST-RIL (reversion-induced LIM) (natural protein, human, UniProt P50479 1-330, looked up)
chain: MPHSVTLRGPSPWGFRLVGGRDFSAPLTISRVHAGSKAALAALCPGDLIQAINGESTELMTHLEAQNRIKGCHDHLTLSVSRPEGRSWPSAPDDSKAQAHRIHIDPEIQDGSPTTSRRPSGTGTGPEDGRPSLGSPYGQPPRFPVPHNGSSEATLPAQMSTLHVSPPPSADPARGLPRSRDCRVDLGSEVYRMLREPAEPVAAEPKQSGSFRYLQGMLEAGEGGDWPGPGGPRNLKPTASKLGAPLSGLQGLPECTRCGHGIVGTIVKARDKLYHPECFMCSDCGLNLKQRGYFFLDERLYCESHAKARVKPPEGYDVVAVYPNAKVELV
B2: MBP-tagged RIL (natural protein, human, UniProt P50479 1-330, looked up)
chain: B1 chain
B3: GST fusion protein containing the kinase domain of Src (residues 249-536) (domain or fragment, UniProt P12931 249-536, looked up)
chain: PTSKPQTQGLAKDAWEIPRESLRLEVKLGQGCFGEVWMGTWNGTTRVAIKTLKPGTMSPEAFLQEAQVMKKLRHEKLVQLYAVVSEEPIYIVTEYMSKGSLLDFLKGETGKYLRLPQLVDMAAQIASGMAYVERMNYVHRDLRAANILVGENLVCKVADFGLARLIEDNEYTARQGAKFPIKWTAPEAALYGRFTIKSDVWSFGILLTELTTKGRVPYPGMVNREVLDQVERGYRMPCPPECPESLHDLMCQCWRKEPEERPTFEYLQAFLEDYFTSTEPQYQPGENL

Key:
Assay in all cases: pull-down
[1] = target: maltose-binding protein (MBP)-tagged Src protein (UniProt P12931 1-536)
[2] = target: pY419 Src (MBP-Src phosphorylated at Y419) (UniProt P12931 1-536, phosphotyrosine at 419)
[3] = target: GST-tagged Src (UniProt P12931 1-536)
[4] = target: B2

Binder: B1
- binding result [1]: binds
- binding result [2]: binds

Binder: B2
- binding result [3]: binds

Binder: B3
- binding result [4]: binds
